The values that follow come from paper PMC10539794, “Structural polymorphism and substrate promiscuity of a ribosome-associated molecular chaperone” (Magnetic resonance, 2021).

Where no end group is shown, it is not given here.

Assay [1] addresses FITC-labeled IcdH3 peptide (ICDH 177-194). Description: fluorescence polarisation; FITC-labeled peptide at 1 µM, TF serially diluted (0.1-1000 µM); 20 mM Tris pH 7.4, 100 mM NaCl; one-site binding model; apparent constants. In general terms: Polarisation of emitted light reports the rotation of a fluorescent probe.
Assay [2] deals with FITC-labeled IcdH2 peptide (ICDH 125-137). Described as above.
The target of assay [3] is FITC-labeled IcdH1 peptide (ICDH 55-70). The assay is described as above.
The target of assay [4] is T1, E. coli TF (trigger factor), full-length (Escherichia coli, UniProt P0A850).
T1 construct: His6 (N); made in house
T1 sequence (P0A850 1-432): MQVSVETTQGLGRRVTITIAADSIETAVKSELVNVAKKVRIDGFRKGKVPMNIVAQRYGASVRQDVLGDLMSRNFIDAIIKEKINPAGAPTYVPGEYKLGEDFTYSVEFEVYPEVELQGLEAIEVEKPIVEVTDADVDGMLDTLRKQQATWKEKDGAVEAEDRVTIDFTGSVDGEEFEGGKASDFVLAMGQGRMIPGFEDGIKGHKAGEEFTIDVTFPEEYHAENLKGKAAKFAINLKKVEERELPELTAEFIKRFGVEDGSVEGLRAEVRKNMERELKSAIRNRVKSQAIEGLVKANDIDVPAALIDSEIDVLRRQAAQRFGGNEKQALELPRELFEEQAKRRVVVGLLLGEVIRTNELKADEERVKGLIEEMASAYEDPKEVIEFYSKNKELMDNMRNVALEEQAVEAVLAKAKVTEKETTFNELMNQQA
Description: Fluorescence polarization analysis of TF binding to FITC-labeled peptides. The following applies: N-terminally FITC-labeled peptide 1 µM, full-length TF 0.1-1000 µM, 20 mM Tris pH 7.4, 100 mM NaCl, ex 485 nm / em 535 nm, one-site binding model, errors from three technical replicates.
Description: A fraction of all these peptides were subsequently labeled with FITC at the N-terminus for fluorescence polarization (FP) measurements. […] For FP analysis, FITC-labeled peptides were dissolved in DMSO to yield a stock solution of 4 M. They were subsequently diluted by 20 mM Tris (pH 7.4) and 100 mM NaCl to yield a molar concentration of 100 µM . 200 µL of TF variants was transferred into a 96-well plate followed by serial dilution by the same buffer in a 1:1 dilution ratio. The final protein concentrations were between 0.1 and 1000 µM . After serial dilution, 50 µL of protein solutions of various protein concentrations was transferred to new wells by an eight-channel pipette and was mixed with FITC-labeled peptide solution to yield a peptide concentration of 1 µM . FP measurements of these samples were carried out using a plate reader (Paradigm, Molecular Device, USA) with an excitation wavelength of 485 nm and an emission wavelength of 535 nm. The integration time was set to 250 ms.

With “E. coli trigger factor (TF), full length (from UniProt P0A850 1-432) (natural protein)”, the Kd in assay [1] is 132 µM; in assay [2], 8.6 µM; in assay [3], 28.2 µM.

In the case of KAYKGERKISWMEIYT [IcdH1], the Kd in assay [4] amounted to 28.2 ± 1 µM.

YICLRPVRYYQGT [IcdH2] returned a Kd in assay [4] of 8.6 ± 0.3 µM.

As for KFLREEMGVKKIRFPEHC [IcdH3], in assay [4], the Kd came to 132 ± 9 µM.
